Laboratory results taken from patent US7495116B2, “Phospholipid derivative” (NOF Corporation, priority 2002, dated 2009).

Test: Determination of salt tolerant effect (clouding point, evaluation as surfactant)
Type: physicochemical
Conditions: 1 weight % solution in 5 weight % aqueous sodium sulfate
Procedure: As a result of the measurement, the clouding point was not detectable even when the temperature was raised up to 80° C.

Substance: monomethylpolyoxyethylenecarbamyl (Molecular Weight: 2000) distearoylphosphatidylethanolamine [Comparative Synthesis Example 1]
- Clouding point: 50.0 °C
